How the values were obtained:
[1] = biological target: T1, hBTN1A1 ICD (human, UniProt Q13410 270-526); assay: ELISA, stock solution
T1 sequence: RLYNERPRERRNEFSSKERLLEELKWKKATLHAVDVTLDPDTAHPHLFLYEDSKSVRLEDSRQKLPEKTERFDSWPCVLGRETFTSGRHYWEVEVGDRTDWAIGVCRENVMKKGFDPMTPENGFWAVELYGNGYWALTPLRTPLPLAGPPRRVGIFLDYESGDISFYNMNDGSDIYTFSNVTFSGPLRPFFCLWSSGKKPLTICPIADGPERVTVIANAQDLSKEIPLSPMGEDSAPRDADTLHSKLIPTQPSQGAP

[2] = biological target: T2, BTN1A1 Peptide 4 (human); assay: ELISA, stock solution
T2 construct: also called BTN1A1-pep4- WT; Pep4
T2 peptide: EVEVGDRTDWAIGVC

[3] = biological target: T3, denatured hBTN1A1 ICD (human, UniProt Q13410 270-526); assay: ELISA, stock solution
T3 construct: Same protein as hBTN1A1 ICD, denatured before the ELISA; also called hBTN1A1 ICD denatured; Denatured ICD
T3 sequence: T1 sequence

[4] = biological target: T1, hBTN1A1 ICD; assay: ELISA, 10X dilution
[5] = biological target: T2, BTN1A1 Peptide 4; assay: ELISA, 10X dilution
[6] = biological target: T3, denatured hBTN1A1 ICD; assay: ELISA, 10X dilution
[7] = biological target: peptide 4 variant V362A expressed by HEK293T cells (human); assay: western blot, relative to WT
[8] = biological target: TRIM variant expressed by HEK293T cells; assay: western blot, relative to WT
[9] = biological target: peptide 4 variant R367A expressed by HEK293T cells (human); assay: western blot, relative to WT
[10] = biological target: peptide 4 variant D366A expressed by HEK293T cells (human); assay: western blot, relative to WT
[11] = biological target: peptide 4 WT expressed by HEK293T cells (human); assay: western blot, relative to WT
[12] = biological target: peptide 4 variant I372A expressed by HEK293T cells (human); assay: western blot, relative to WT
[13] = biological target: peptide 4 variant E363A expressed by HEK293T cells (human); assay: western blot, relative to WT
[14] = biological target: peptide 4 variant D369A expressed by HEK293T cells (human); assay: western blot, relative to WT
[15] = biological target: peptide 4 variant E361A expressed by HEK293T cells (human); assay: western blot, relative to WT
[16] = biological target: peptide 4 variant V364A expressed by HEK293T cells (human); assay: western blot, relative to WT
[17] = biological target: peptide 4 variant W370A expressed by HEK293T cells (human); assay: western blot, relative to WT
[18] = biological target: peptide 4 variant T368A expressed by HEK293T cells (human); assay: western blot, relative to WT
[19] = biological target: peptide 4 variant C375A expressed by HEK293T cells (human); assay: western blot, relative to WT
[20] = biological target: peptide 4 variant G365A expressed by HEK293T cells (human); assay: western blot, relative to WT
[21] = biological target: peptide 4 variant E363A expressed by HEK293T cells (human); assay: western blot, HEK293T lysate, antibody 1 ug/ml
[22] = biological target: T4, mouse BTN1A1 (mouse, UniProt Q62556 27-524, limits assumed); assay: immunohistochemistry, 2 ug/mL
T4 construct: also called mBTN1A1
T4 sequence (looked up): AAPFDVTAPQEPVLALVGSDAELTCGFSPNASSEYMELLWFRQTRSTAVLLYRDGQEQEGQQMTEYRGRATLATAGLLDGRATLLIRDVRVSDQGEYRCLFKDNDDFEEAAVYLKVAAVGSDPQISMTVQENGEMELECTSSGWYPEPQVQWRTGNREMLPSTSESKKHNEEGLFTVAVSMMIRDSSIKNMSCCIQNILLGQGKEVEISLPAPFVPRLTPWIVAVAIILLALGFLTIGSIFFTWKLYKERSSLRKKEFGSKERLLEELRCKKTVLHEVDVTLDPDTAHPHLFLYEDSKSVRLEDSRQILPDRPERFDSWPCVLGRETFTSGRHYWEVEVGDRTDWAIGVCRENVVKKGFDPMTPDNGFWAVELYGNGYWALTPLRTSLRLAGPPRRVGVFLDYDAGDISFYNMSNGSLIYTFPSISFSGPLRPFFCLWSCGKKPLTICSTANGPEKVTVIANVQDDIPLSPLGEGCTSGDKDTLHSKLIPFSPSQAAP
Excerpt: […]

ELISA signal [1]: 2.93
ELISA signal [2]: 2.88
ELISA signal [3]: 2.87
ELISA signal [4]: 2.96
ELISA signal [5]: 2.83
ELISA signal [6]: 2.9
% binding Rel. Quant. [7]: 247%
% binding Rel. Quant. [8]: -0.213%
% binding Rel. Quant. [9]: 50.1%
% binding Rel. Quant. [10]: -8.55%
% binding Rel. Quant. [11]: 100%
% binding Rel. Quant. [12]: 0.127%
% binding Rel. Quant. [13]: 67.6%
% binding Rel. Quant. [14]: 0.178%
% binding Rel. Quant. [15]: 48.3%
% binding Rel. Quant. [16]: 26.8%
% binding Rel. Quant. [17]: 8.25%
% binding Rel. Quant. [18]: 10.4%
% binding Rel. Quant. [19]: 277%
% binding Rel. Quant. [20]: 86.8%
STC43H11-1 Adj. Vol. (Int) [21]: 2.61e+06
binding result [22]: binds
B1: STC43H11-1 (antibody, V domains shown)
VH: QSLEESGGRLVTPGGSLTLTCTVSGIDLSSYAMGWVRQAPGEGLEWIGSIGTGGGTGYASWAKGRFTISKTSTTVDLKMTSLTASDTATYFCATSNLWGPGTLVTVSS
VL: QVLTQTASPVSAAVGGTVTINCQASQSVYNNNRCSWFQQKPGQPPKRLIYHTSTLDSGVPSRFKGSGSGTQFTLTISDVQCDDAATYYCLGNYDCSRADCAAFGGGTEVVVK
notes: From immunized New Zealand rabbits; IgG heavy chain and Kappa light chain; also called clone #43H11; Clone 43H11
